Measurements taken from patent US8697416B2, “Recombinant polynucleotide, host cells containing the same and a process for producing a protein having aldolase activity” (Ajinomoto Co., Inc., priority 2002, dated 2014).
Like-named read-outs stand apart in the source and are kept apart here.

B1: PcALD: aldolase derived from Pseudomonas coronafaciens strain AJ2791, amino acid sequence SEQ ID No: 16; recombinant, purified in Example 5 (protein, listed as Pseudomonas coronafaciens)
chain: MKCHSVIWFSAWPHPIISREKSHMTIGFRVLSAARKVSPEWVARYRDVPVANVSDSMNRMTAGGSRLRPMHRAGVLAGPALTVKARPGDNLMLHYAIDIAQPGDVIVVDAGGDLTNALIGEMMVAYAVKRGVAGIVINGAIRDAASIGAGDFPMFAAGVSHRGPYKDGPGEINVPIAIDGMVIEAGDLVIGDDDGLLCVPYDQVAEVYDRAAAKHHAEQKQLEQIAKGENDRSWVLESLKKKGCQLPE
B2: PtALD: aldolase derived from Pseudomonas taetrolens ATCC4683, amino acid sequence SEQ ID No: 2 or 3; recombinant, purified in Example 4 (protein, listed as Pseudomonas taetrolens)
chain: MEVAMSLPGSRIYPSPPQAPRSLLDAFQNVVTPHISDNLGRHIGARGLTRYNHTGKLVGTALTVKTRPGDNLYIYKALTLIEPGHVLVIDAQGDATNAVIGELIKLYAQQRGCVGFVVDGAIRDVASFEDTPCYARSVVHCGPYKSGPGEINVPVSIGGMIINPGDIIVGDEDGLVAFSPDHAEQVLVKAREHDAHEQQVKAEIATGAIDQSWLDKVLEKAGLAN

Columns and labels:
[1] = Synthesis of IHOG from indole-3-pyruvic acid and pyruvic acid using purified PtALD and PcALD; type: biochemical; settings: PtALD 1.8 U/ml, PcALD 0.8 U/ml, pH 8.5, 33° C., 4 hours
Method: 4-(Indol-3-ylmethyl)-4-hydroxy-2-oxoglutarate (IHOG) was synthesized from indole-3-pyruvic acid and pyruvic acid using the PtALD and PcALD produced in Examples 4 and 5 as enzyme sources. The amount of IHOG was determined by HPLC analysis using the “Inertsil ODS-2” (GL Sciences Inc., 5 μm, 4.6×250 mm). The analysis conditions are as indicated below.
Mobile phase: 40% (v/v) acetonitrile/5 mM tetrabutyl
ammonium dihydrogen phosphate solution
Column temperature: 40° C.
PtALD and PcALD were added at 1.8 U/ml and 0.8 U/ml, respectively, to a reaction solution comprised of 100 mM Hepes-KOH (pH 8.5), 50 mM indole-3-pyruvic acid, 250 mM pyruvic acid and 1 mM to 5 mM MgCl2, and allowed to react at 33° C. for 4 hours. The enzyme reaction solution was suitably diluted and the amount of IHOG formed was quantified. As a result, IHOG was able to be formed from the aldolases.

[2] = Aldol condensation activity of pyruvic acid for various substrates using PtALD (ESI-MS); type: biochemical; settings: 50 mM substrate, 250 mM sodium pyruvate, 0.1 mg/ml PtALD, pH 9, 33° C., 2 hours; substrates of Tables 11 and 12
Method: The aldol condensation activity of pyruvic acid was measured for the various substrates shown in Table 11 using the PtALD produced in Example 4. A reaction solution was prepared composed of 100 mM glycine-NaOH (pH 9), 50 mM substrate, 250 mM sodium pyruvate, 1 mM MgCl2 and 0.1 mg/ml PtALD, and incubated at 33° C. for 2 hours. The resulting reaction solution was subjected to ultrafiltration with an ultrafiltration membrane, Microcon 10 (Amicon) for a fraction molecular weight of 10000. 2 μl of the filtrate was diluted in 200 μl of 50% acetonitrile/0.1% aqueous ammonia solution followed by ESI-MS analysis.

[3] = Optimum pH of PtALD aldolase activity; type: biochemical; settings: at 33° C.
Method: More specifically, aldolase activity may be estimated according to the following steps of adding aldolase to a reaction solution composed of 100 mM buffer, 50 mM indole-3-pyruvic acid, 250 mM pyruvic acid, 1 mM MgCl2 and 1% (v/v) toluene; and shaking while reaction at 33° C. for 4 hours; and then quantifying the amount of IHOG formed by HPLC.

[4] = pH stability of PtALD (residual activity); type: physicochemical; settings: 37° C., 30 minutes, 100 mM buffers
Method: pH stability was measured over a range of pH 3 to pH 11. The buffers used for measurement were as follows: sodium acetate buffer (pH 3, 4, 5, 6), potassium phosphate buffer (pH 6, 6.5, 7, 7.5), Tris-HCl buffer (pH 7, 7.5, 8, 8.5), glycine-NaOH buffer (pH 9, 9.5, 10), CAPS-NaOH buffer (pH 10, 10.5, 11). The residual activity after incubating PtALD at 37° C. for 30 minutes in each of the buffer solutions at a concentration of 100 mM was measured under the basic reaction conditions.

[5] = Enzymatic properties of PtALD: kinetics constants when using PHOG as substrate; type: biochemical
Method: Basic reaction conditions: 50 mM Hepes-KOH (pH 8.0), 2 mM PHOG, 5 mM MgCl2, 3 mM KPB (pH 8), 16 U/ml of lactate dehydrogenase, measure a optical absorbance at 340 nm measured at 30° C.
The aldolase activity increased by 2.7 times as compared with a non-addition lot following addition of 1 mM MgCl2, and increased 2 times as compared with a non-addition lot following addition of 5 mM KPB.

[6] = Aldol condensation activity of PtALD using acetaldehyde and α-ketobutyrate (ESI-MS); type: biochemical; settings: 50 mM acetoaldehyde, 250 mM α-ketobutyrate, 0.1 mg/ml PtALD, pH 9, 33° C., 16 hours
Method: The aldol condensation activity of the PtALD prepared in Example 4 was measured using acetaldehyde and α-ketobutyrate. A reaction solution composed of 100 mM glycine-NaOH (pH 9), 50 mM acetoaldehyde, 250 mM α-ketobutyrate, 1 mM MgCl2 and 0.1 mg/ml PtALD was prepared, and it was incubated at 33° C. for 16 hours. The resulting reaction solution was subjected to ultrafiltration with an ultrafiltration membrane, Microcon 10 (Amicon) for a fraction molecular weight of 10000. 10 μl of the filtrate was diluted in 200 μl of 50% acetonitrile/0.1% aqueous ammonia solution followed by ESI-MS analysis.

[7] = Temperature stability of PtALD (residual activity); type: physicochemical; settings: 30 minutes incubation, pH 7.0 and pH 9.0
Method: Residual activity was measured under the basic measurement conditions after incubating PtALD at 25 to 70° C. for 30 minutes in 100 mM potassium phosphate buffer (pH 7.0) and 100 mM glycine-NaOH buffer (pH 9.0).

Row | Molecule | IHOG formed ([1]; MgCl2 1 mM) [mM] | IHOG formed ([1]; MgCl2 5 mM) [mM] | Formation of pyruvic acid aldol condensates for various substrates [2] | optimum pH [3] | pH stability (pH) [4] | Increase of aldolase activity as compared with a non-addition lot ([5]; addition of 1 mM MgCl2) [times] | Increase of aldolase activity as compared with a non-addition lot ([5]; addition of 5 mM KPB) [times] | Ka (for KPi) ([5]; pH 8.0, 30° C.) [mM] | Vmax (for PHOG) ([5]; pH 8.0, 30° C.) [µmol/min/mg] | Km ([5]; pH 8.0, 30° C., read-out: Km (for MgCl2)) [µM] | Km ([5]; pH 8.0, 30° C., read-out: Km (for PHOG)) [µM] | Formation of aldol condensate from acetaldehyde and α-ketobutyrate [6] | temperature stability [7] [°C]
1 | B1 | 4.9 | 5.4 | – | – | – | – | – | – | – | – | – | – | –
2 | B2 | 11.4 | 10.5 | the desired pyruvic acid aldol condensates were formed | about 9 | ≥ 6 | 2.7 | 2 | 0.95 | 91.7 | 19 | 100 | formation of the desired aldol condensate | ≤ 70
